For the test, the target named is T1, Flag-tagged TRIM24 N-terminal domain (amino acids 1-473) (mouse, UniProt Q64127 1-473).
T1 construct: TRIM24, mouse, N-terminal domain, amino acids 1-473; the recombinant constructs are numbered to residue 1051; also called amino-terminal region of the Trim24 protein; not shown: Flag, N-terminal, kept
T1 sequence (looked up): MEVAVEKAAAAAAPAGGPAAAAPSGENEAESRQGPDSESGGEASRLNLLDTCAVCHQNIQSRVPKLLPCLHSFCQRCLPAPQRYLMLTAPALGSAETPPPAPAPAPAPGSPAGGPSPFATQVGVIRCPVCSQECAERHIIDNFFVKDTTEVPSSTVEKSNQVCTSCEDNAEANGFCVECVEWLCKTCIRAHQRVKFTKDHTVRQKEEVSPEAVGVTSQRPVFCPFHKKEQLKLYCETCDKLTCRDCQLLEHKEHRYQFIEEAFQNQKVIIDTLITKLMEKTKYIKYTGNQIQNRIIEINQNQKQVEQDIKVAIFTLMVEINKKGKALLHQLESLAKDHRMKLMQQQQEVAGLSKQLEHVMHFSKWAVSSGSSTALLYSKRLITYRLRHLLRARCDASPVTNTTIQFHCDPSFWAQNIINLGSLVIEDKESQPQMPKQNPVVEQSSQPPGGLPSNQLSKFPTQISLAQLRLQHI
The test is described as follows: pull-down; Flag-tagged TRIM24 domains (0.25 nmol) mixed with Strep-tagged p53 in equimolar ratios, anti-Flag or Strep-Tactin beads, 2 h at 4 °C, 50 mM HEPES pH 8.0, 150 mM NaCl; stained gel. To be noted: both partners purified.

1 molecule from article PMC10352137, “Readout of histone methylation by Trim24 locally restricts chromatin opening by p53” (Nature Structural & Molecular Biology, 2023) can be followed below.

B1: Strep-tagged mouse full-length p53 (natural protein, UniProt P02340 1-390, looked up)
chain: MTAMEESQSDISLELPLSQETFSGLWKLLPPEDILPSPHCMDDLLLPQDVEEFFEGPSEALRVSGAPAAQDPVTETPGPVAPAPATPWPLSSFVPSQKTYQGNYGFHLGFLQSGTAKSVMCTYSPPLNKLFCQLAKTCPVQLWVSATPPAGSRVRAMAIYKKSQHMTEVVRRCPHHERCSDGDGLAPPQHLIRVEGNLYPEYLEDRQTFRHSVVVPYEPPEAGSEYTTIHYKYMCNSSCMGGMNRRPILTIITLEDSSGNLLGRDSFEVRVCACPGRDRRTEEENFRKKEVLCPELPPGSAKRALPTCTSASPPQKKKPLDGEYFTLKIRGRKRFEMFRELNEALELKDAHATEESGDSRAHSSYLKTKKGQSTSRHKKTMVKKVGPDSD
notes: p53, mouse, full length; also called purified p53; Strep-tagged p53 full-length protein; source: Sf9 (Bac-to-Bac), purified (Strep-Tactin, heparin ion exchange, Superose 6 SEC); not shown: Strep-tag, N-terminal, kept
As for B1, the binding result is “binds”.
